Source: paper PMC6090015, “Identification and characterization of a novel β-D-galactosidase that releases pyruvylated galactose” (Scientific Reports, 2018)

Experiments:
ORF1119 (PvGal-ase) = molecular target: T1, ORF1119 (PvGal-ase) (Bacillus sp. HMA207, UniProt Z9IVQ1LJN5, E163A); experiment: X-ray crystal structure, […] Å; assay type: binding; conditions: co-crystallised with pNP-β-D-PvGal, pNP lost during crystal growth; active site; phosphate-citrate pH 5.2
T1 construct: full length 469 aa, no signal peptide; pET-32b, N-terminal His5 tag, E. coli BL21(DE3)CodonPlus delta-lacZ, Ni-purified

[1] = tested on: T2, C[C@H]1O[C@@H](Oc2ccc([N+](=O)[O-])cc2)[C@H](O)[C@@H](O)[C@H]1O; experiment: discontinuous pNP release, A405; assay type: biochemical, Bacillus sp. HMA207; conditions: 50 mM HEPES-NaOH pH 7.5
T2 construct: full length 469 aa, no signal peptide; pET-32b, N-terminal His5 tag, E. coli BL21(DE3)CodonPlus delta-lacZ, Ni-purified
Source text: (§1) discontinuous pNP release, A405 on ORF1119 (PvGal-ase)

[2] = tested on: T3, O=[N+]([O-])c1ccc(O[C@@H]2O[C@H](CO)[C@@H](O)[C@H](O)[C@H]2O)cc1; experiment: discontinuous pNP release, A405; assay type: biochemical, Bacillus sp. HMA207; conditions: 50 mM HEPES-NaOH pH 7.5
T3 construct: full length 469 aa, no signal peptide; pET-32b, N-terminal His5 tag, E. coli BL21(DE3)CodonPlus delta-lacZ, Ni-purified
Source text: as §1

[3] = tested on: T4, CC1(C(=O)O)OC[C@H]2O[C@@H](Oc3ccc([N+](=O)[O-])cc3)[C@H](O)[C@@H](O)[C@H]2O1; experiment: discontinuous pNP release, A405; assay type: biochemical, Bacillus sp. HMA207; conditions: 50 mM HEPES-NaOH pH 7.5, 37 °C
T4 construct: full length 469 aa, no signal peptide; pET-32b, N-terminal His5 tag, E. coli BL21(DE3)CodonPlus delta-lacZ, Ni-purified
Source text: as §1

[4] = tested on: T5, O=[N+]([O-])c1ccc(O[C@@H]2O[C@H](CO)[C@H](O)[C@H](O)[C@H]2O)cc1; experiment: discontinuous pNP release, A405; assay type: biochemical, Bacillus sp. HMA207; conditions: 50 mM HEPES-NaOH pH 7.5
T5 construct: full length 469 aa, no signal peptide; pET-32b, N-terminal His5 tag, E. coli BL21(DE3)CodonPlus delta-lacZ, Ni-purified
Source text: as §1

Compound: C[C@@]1(C(=O)O)OC[C@H]2OC(O)[C@H](O)[C@@H](O)[C@H]2O1 (stereo partly shown) [PvGal]
- X-ray crystal structure, 2.45 Å (ORF1119 (PvGal-ase)): In the complex structure, clear electron density is observed for the PvGal ligand

Compound: ORF1119 (PvGal-ase) (Bacillus sp. HMA207)
- Km [1]: 1900 ± 100 µM
- kcat [1]: 1.6 ± 0.02 s⁻¹
- kcat/Km [1]: 830 M⁻¹ s⁻¹
- Km [2]: 7400 ± 400 µM
- kcat [2]: 0.10 ± 0.002 s⁻¹
- kcat/Km [2]: 14 M⁻¹ s⁻¹
- Km ([3]; 37.0 °C): 810 ± 140 µM
- kcat ([3]; 37.0 °C): 5.2 ± 0.2 s⁻¹
- kcat/Km ([3]; 37.0 °C): 6300 M⁻¹ s⁻¹
- Km [4]: 3300 ± 400 µM
- kcat [4]: 0.20 ± 0.005 s⁻¹
- kcat/Km [4]: 60 M⁻¹ s⁻¹

Compound: ORF1119 (PvGal-ase) (Bacillus sp. HMA207; K434A)
- Km [3]: 730 ± 120 µM
- kcat [3]: 8.8 ± 0.2 s⁻¹
- kcat/Km [3]: 12000 M⁻¹ s⁻¹

Compound: ORF1119 (PvGal-ase) (Bacillus sp. HMA207; N430A)
- Km [3]: 900 ± 160 µM
- kcat [3]: 7.0 ± 0.2 s⁻¹
- kcat/Km [3]: 7700 M⁻¹ s⁻¹

Compound: ORF1119 (PvGal-ase) (Bacillus sp. HMA207; N430Y)
- Km [3]: 370 ± 80 µM
- kcat [3]: 7.7 ± 0.2 s⁻¹
- kcat/Km [3]: 21000 M⁻¹ s⁻¹

Compound: ORF1119 (PvGal-ase) (Bacillus sp. HMA207; S427A)
- Km [3]: 1920 ± 450 µM
- kcat [3]: 4.4 ± 0.3 s⁻¹
- kcat/Km [3]: 2300 M⁻¹ s⁻¹

Compound: ORF1119 (PvGal-ase) (Bacillus sp. HMA207; S427E)
- Km [1]: 470 ± 60 µM
- kcat [1]: 0.91 ± 0.02 s⁻¹
- kcat/Km [1]: 2000 M⁻¹ s⁻¹
- Km [2]: 460 ± 90 µM
- kcat [2]: 0.05 ± 0.001 s⁻¹
- kcat/Km [2]: 98 M⁻¹ s⁻¹
- Km [4]: 890 ± 90 µM
- kcat [4]: 0.13 ± 0.002 s⁻¹
- kcat/Km [4]: 149 M⁻¹ s⁻¹

Compound: ORF1119 (PvGal-ase) (Bacillus sp. HMA207; Y436A)
- Km [3]: 800 ± 180 µM
- kcat [3]: 0.68 ± 0.03 s⁻¹
- kcat/Km [3]: 860 M⁻¹ s⁻¹

Compound: ORF1119 (PvGal-ase) (Bacillus sp. HMA207; Y436F)
- Km [3]: 530 ± 90 µM
- kcat [3]: 6.5 ± 0.2 s⁻¹
- kcat/Km [3]: 12000 M⁻¹ s⁻¹
